Source: paper PMC2924745 (Nature structural & molecular biology, 2010)
Blank lines part the entries; values can stand above or below the molecule they belong to.

Columns and labels:
[1] = biological target: MetIN, the E. coli D/L-methionine ABC importer (His-tagged) (Escherichia coli) (UniProt P30750); assay: SPR
[2] = biological target: T1, BtuCD, the E. coli vitamin B12 ABC transporter (His-tagged) (Escherichia coli, UniProt P06609;P06611); assay: co-sedimentation
T1 sequence 1: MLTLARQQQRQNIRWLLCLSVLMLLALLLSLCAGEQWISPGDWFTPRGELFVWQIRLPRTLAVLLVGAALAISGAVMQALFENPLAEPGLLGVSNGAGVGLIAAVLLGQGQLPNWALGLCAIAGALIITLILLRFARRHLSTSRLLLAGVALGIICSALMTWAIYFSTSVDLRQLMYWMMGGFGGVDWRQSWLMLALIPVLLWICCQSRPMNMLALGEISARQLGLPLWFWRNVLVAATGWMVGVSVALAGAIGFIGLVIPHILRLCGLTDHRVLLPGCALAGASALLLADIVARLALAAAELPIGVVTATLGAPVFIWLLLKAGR
T1 sequence 2: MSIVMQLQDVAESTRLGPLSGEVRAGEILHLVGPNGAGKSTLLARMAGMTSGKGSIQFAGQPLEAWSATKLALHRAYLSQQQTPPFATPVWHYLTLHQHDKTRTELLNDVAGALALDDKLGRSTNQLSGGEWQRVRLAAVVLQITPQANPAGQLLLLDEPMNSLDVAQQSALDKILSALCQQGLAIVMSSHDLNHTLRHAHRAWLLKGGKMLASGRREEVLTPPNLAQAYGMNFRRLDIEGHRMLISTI

[3] = biological target: T1, BtuCD, the E. coli vitamin B12 ABC …; assay: cell-based or functional assay

MetIN, the E. coli D/L-methionine ABC importer (His-tagged) (Escherichia coli), sequence (P30750 whole entry, chain 1 of 2): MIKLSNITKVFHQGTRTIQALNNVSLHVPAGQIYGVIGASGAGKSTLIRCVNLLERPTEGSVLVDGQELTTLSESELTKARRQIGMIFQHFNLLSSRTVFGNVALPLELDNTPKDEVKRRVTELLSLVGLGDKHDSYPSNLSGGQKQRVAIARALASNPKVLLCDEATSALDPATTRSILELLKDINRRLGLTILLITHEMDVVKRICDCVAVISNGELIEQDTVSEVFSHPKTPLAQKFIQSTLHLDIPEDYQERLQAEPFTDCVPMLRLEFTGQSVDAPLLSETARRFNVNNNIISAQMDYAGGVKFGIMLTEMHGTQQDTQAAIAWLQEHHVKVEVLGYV
MetIN, the E. coli D/L-methionine ABC importer (His-tagged) (Escherichia coli), sequence (P31547 whole entry, chain 2 of 2, further chain): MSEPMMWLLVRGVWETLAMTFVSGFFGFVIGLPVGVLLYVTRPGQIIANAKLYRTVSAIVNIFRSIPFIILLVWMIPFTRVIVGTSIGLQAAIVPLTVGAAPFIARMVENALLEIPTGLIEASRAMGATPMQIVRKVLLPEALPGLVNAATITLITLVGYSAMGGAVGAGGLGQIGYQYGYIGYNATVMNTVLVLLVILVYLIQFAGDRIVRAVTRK

Kd [1]: 74 µM
Molecule: MetQ, the binding protein of the E. coli D/L-methionine importer (from UniProt P28635 23-271) (natural protein)

Kd [2]: < 0.02 µM | stimulation of ATP hydrolysis rate of BtuCD [3]: < 2 fold
B1: BtuF, the vitamin B12 binding protein of E. coli, with a C-terminal FLAG tag (natural protein)
chain: APRVITLSPANTELAFAAGITPVGVSSYSDYPPQAQKIEQVSTWQGMNLERIVALKPDLVIAWRGGNAERQVDQLASLGIKVMWVDATSIEQIANALRQLAPWSPQPDKAEQAAQSLLDQYAQLKAQYADKPKKRVFLQFGINPPFTSGKESIQNQVLEVCGGENIFKDSRVPWPQVSREQVLARSPQAIVITGGPDQIPKIKQYWGEQLKIPVIPLTSDWFERASPRIILAAQQLCNALSQVD
